Read-outs that look alike come from different tables or passages of the source. Each block holds one molecule with its values, some of them ahead of it.
Experiments:
MVI_(814–1060) = test: FRET or BRET; titration of Alexa555-CBD against 1 µM FITC-labelled N-terminal tail fragment, plate reader, 25°C, 50 mM Tris·HCl pH 7.5, 150 mM NaCl, 1 mM DTT; fitted to a quadratic binding equation
[1] = target: MVI_(814–1091) (containing the LI); test: as above
MVI_(TAIL(NI)) [2] = test: FRET or BRET; stopped flow; 1 µM FITC-MVI_TAIL(NI) and 1 µM AF555-MVI_TAIL(NI) pre-mixed, then mixed with an excess of unlabelled NDP52, pseudo-first order; 25°C, 50 mM Tris–HCl pH 7.5, 150 mM NaCl, 1 mM DTT, 3 mM MgCl2
MVI_(TAIL(NI)) [3] = test: as above; remark: listed apart in the source
F-actin = F-actin (UniProt P68135); test: pull-down; actin isolation: 5 µM MVI ± 15 µM NDP52 with 5 µM F-actin (20% biotinylated), streptavidin Dynabeads, 150 mM NaCl, 50 mM Tris.HCl pH 7.5, 1 mM MgCl2, 1 mM DTT, RT; SDS–PAGE of pellet and supernatant
MVI_(TAIL(NI)) [4] = target: MVI_(TAIL(NI))
MVI_(TAIL(NI)) [5] = test: FRET or BRET; stopped flow; 1 µM FITC-MVI_TAIL(NI) mixed with excess AF555-NDP52, pseudo-first order; 25°C, 50 mM Tris–HCl pH 7.5, 150 mM NaCl, 1 mM DTT, 3 mM MgCl2
[6] = target: T1, nuclear dot protein 52 (NDP52), Q13137; test: SEC-MALS; 100 µl of 2 mg/ml protein on Superdex 200 (30 × 1 cm), 150 mM NaCl, 50 mM Tris.HCl pH 7.5, 1 mM DTT, room temperature; conditions: remark: other sources report otherwise
T1 chain: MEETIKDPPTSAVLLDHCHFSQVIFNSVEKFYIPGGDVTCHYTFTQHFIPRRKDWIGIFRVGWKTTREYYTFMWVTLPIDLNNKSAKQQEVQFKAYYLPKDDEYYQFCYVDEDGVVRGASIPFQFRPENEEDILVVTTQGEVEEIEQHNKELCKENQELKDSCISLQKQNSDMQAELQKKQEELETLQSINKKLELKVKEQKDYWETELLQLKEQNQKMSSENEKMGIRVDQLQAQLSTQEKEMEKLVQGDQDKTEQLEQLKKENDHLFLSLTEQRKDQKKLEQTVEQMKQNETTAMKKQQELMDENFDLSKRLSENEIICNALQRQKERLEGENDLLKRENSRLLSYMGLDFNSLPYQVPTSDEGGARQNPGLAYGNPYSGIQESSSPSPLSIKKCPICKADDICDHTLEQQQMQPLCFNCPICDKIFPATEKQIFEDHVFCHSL

Molecule: Myosin VI cargo binding domain (CBD) (domain or fragment)
Kd (MVI_(814–1060)): 4.8 µM
Kd [1]: 5.98 µM

Molecule: MVI_(TAIL(NI)) (domain or fragment)
observed rate constant of the FRET increase (dimerization after adding NDP52) (MVI_(TAIL(NI)) [2]): 2.45 s⁻¹
observed rate constant of the FRET increase (dimerization after adding NDP52) (MVI_(TAIL(NI)) [3]): 2.2 s⁻¹

Molecule: Full-length MVI NI (natural protein)
kcat of the steady-state actin-activated ATPase of full-length MVI in the presence of dimeric NDP52 (Full-length MVI NI): 2.11 s⁻¹
kcat of the steady-state actin-activated ATPase of full-length MVI in the presence of monomeric tDab2 (Full-length MVI NI): 2.55 s⁻¹
percent of MVI bound to actin (F-actin): 50%
percent of MVI bound to actin (with an excess of NDP52) (F-actin): > 80%

B2: nuclear dot protein 52 (NDP52), Q13137 1-446 (natural protein)
chain: T1 chain
modifications: here or on the partner: Alexa Fluor 555 label in the stopped-flow FRET assay (site not stated); unlabelled elsewhere; Alexa Fluor 555 label in the stopped-flow FRET assay (site not stated); unlabelled elsewhere
stoichiometry N [6]: 2

Now from value to molecule:

kcat of the steady-state actin-activated ATPase of MVI 1-1060 (MVI_(1–1060)): 2.79 s⁻¹
Molecule: MVI_(1–1060) (domain or fragment)

rate constant of the fluorescence decrease of Cy3B-calmodulin bound to MVI TAIL(NI) on mixing with excess NDP52 (unfolding; independent of NDP52 concentration) (MVI_(TAIL(NI)) [4]): 1.95 s⁻¹
Kd (MVI_(TAIL(NI)) [5]): 1.94 µM
koff (MVI_(TAIL(NI)) [5]): 3.2 s⁻¹
kon (MVI_(TAIL(NI)) [5]): 1.65e+06 M⁻¹ s⁻¹
rate constant of the second phase (unfolding after binding, independent of NDP52 concentration) (MVI_(TAIL(NI)) [5]): 2.2 s⁻¹
B1: nuclear dot protein 52 (NDP52) (natural protein)
chain: T1 chain
modifications: Alexa Fluor 555 label in the stopped-flow FRET assay (site not stated); unlabelled elsewhere
